Measured values from publication doi:10.1101/2023.09.20.558662 (bioRxiv, 2023).
Values belong to the binder of their own block, whether it stands above or below them.

Assays:
cryo-EM structure = molecular target: the molecule itself; test: cryo-EM structure
[1] = molecular target: CUL3 N-terminal domain (CUL3^NTD, residues 1-381) (UniProt Q13618 1-381); test: BLI
Sequence of CUL3 N-terminal domain (CUL3^NTD, residues 1-381) (Q13618 1-381): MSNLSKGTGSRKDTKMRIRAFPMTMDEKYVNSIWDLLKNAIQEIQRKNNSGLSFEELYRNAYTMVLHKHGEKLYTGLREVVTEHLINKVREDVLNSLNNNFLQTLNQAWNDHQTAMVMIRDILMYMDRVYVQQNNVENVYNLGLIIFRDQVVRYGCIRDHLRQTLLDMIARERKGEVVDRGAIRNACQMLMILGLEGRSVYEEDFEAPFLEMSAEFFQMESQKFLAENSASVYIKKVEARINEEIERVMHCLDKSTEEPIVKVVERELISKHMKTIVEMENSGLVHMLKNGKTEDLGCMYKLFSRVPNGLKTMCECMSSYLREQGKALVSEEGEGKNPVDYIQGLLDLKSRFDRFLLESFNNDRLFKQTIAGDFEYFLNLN

B1: KCTD5 (full-length, purified; SEC and cryo-EM samples) (natural protein)
chain: MAENHCELLSPARGGIGAGLGGGLCRRCSAGLGALAQRPGSVSKWVRLNVGGTYFLTTRQTLCRDPKSFLYRLCQADPDLDSDKDETGAYLIDRDPTYFGPVLNYLRHGKLVINKDLAEEGVLEEAEFYNITSLIKLVKDKIRERDSKTSQVPVKHVYRVLQCQEEELTQMVSTMSDGWKFEQLVSIGSSYNYGNEDQAEFLCVVSKELHNTPYGTASEPSEKAKILQERGSRM
stoichiometry N (cryo-EM structure): 5

binding result [1]: binds
B2: KCTD5 L161R (natural protein)
chain: MAENHCELLSPARGGIGAGLGGGLCRRCSAGLGALAQRPGSVSKWVRLNVGGTYFLTTRQTLCRDPKSFLYRLCQADPDLDSDKDETGAYLIDRDPTYFGPVLNYLRHGKLVINKDLAEEGVLEEAEFYNITSLIKLVKDKIRERDSKTSQVPVKHVYRVRQCQEEELTQMVSTMSDGWKFEQLVSIGSSYNYGNEDQAEFLCVVSKELHNTPYGTASEPSEKAKILQERGSRM

Kd [1]: 30 nM
B3: Thioredoxin-fusion KCTD5 (natural protein)
chain: MAENHCELLSPARGGIGAGLGGGLCRRCSAGLGALAQRPGSVSKWVRLNVGGTYFLTTRQTLCRDPKSFLYRLCQADPDLDSDKDETGAYLIDRDPTYFGPVLNYLRHGKLVINKDLAEEGVLEEAEFYNITSLIKLVKDKIRERDSKTSQVPVKHVYRVLQCQEEELTQMVSTMSDGWKFEQLVSIGSSYNYGNEDQAEFLCVVSKELHNTPYGTASEPSEKAKILQERGSRM
